Reference: article PMC7610992 (Journal of molecular biology, 2006)

T1: RNA helicase B (RhlB), full-length helicase (E. coli, UniProt P0A8J8 1-421)
T1 sequence (looked up): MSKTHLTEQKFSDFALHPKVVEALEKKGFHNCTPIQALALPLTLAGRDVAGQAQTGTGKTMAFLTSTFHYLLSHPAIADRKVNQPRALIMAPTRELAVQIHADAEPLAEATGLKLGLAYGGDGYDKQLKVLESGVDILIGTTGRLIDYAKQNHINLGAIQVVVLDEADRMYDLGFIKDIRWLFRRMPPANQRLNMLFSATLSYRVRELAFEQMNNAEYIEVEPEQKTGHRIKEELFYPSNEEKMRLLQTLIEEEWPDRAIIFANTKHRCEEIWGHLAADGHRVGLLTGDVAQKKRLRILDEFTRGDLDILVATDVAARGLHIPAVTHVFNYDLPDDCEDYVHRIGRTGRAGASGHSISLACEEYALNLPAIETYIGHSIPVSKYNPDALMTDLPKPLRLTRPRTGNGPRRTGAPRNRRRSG

B1: RhlB-CTD, carboxy-terminal domain of RhlB helicase (domain or fragment, E. coli)
chain: MRIKEELFYPSNEEKMRLLQTLIEEEWPDRAIIFANTKHRCEEIWGHLAADGHRVGLLTGDVAQKKRLRILDEFTRGDLDILVATDVAARGLHIPAVTHVFNYDLPDDCEDYVHRIGRTGRAGASGHSISLACEEYALNLPAIETYIGHSIPVSKYNPDALMTDLPKPLRLTRPRTGNGPRRTGAPRNRRRSG
B2: RNase E (628-843) (domain or fragment, E. coli, UniProt P21513 628-843, looked up)
chain: ERTEGSDNREENRRNRRQAQQQTAETRESRQQAEVTEKARTADEQQAPRRERSRRRNDDKRQAQQEAKALNVEEQSVQETEQEERVRPVQPRRKQRQLNQKVRYEQSVAEEAVVAPVVEETVAAEPIVQEAPAPRTELVKVPLPVVAQTAPEQQEENNADNRDNGGMPRRSRRSPRHLRVSGQRRRRYRDERYPTQSPMPLTVACASPELASGKVW

What was measured:
RNase E (628-843) = molecular target: B2; assay: SEC + cross-linking + native MS
[1] = molecular target: T1, RNA helicase B (RhlB), full-length …; assay: limited proteolysis with native gel and mass spectrometry

stoichiometry N (RNase E (628-843))	binding result [1]	Binder
1 RhlB-CTD per RNase E (628-843)		B1
	binds	B2
